Measured values taken from patent US20240182561A1 (Regeneron, published 2024).

Key:
[1] = target: T1, human CACNG1 expressed on cells (human, UniProt Q06432 1-222); assay: cell-based or functional assay
[2] = target: T2, mouse CACNG1 expressed on cells (mouse, UniProt O70578 1-223); assay: cell-based or functional assay
T2 sequence (looked up): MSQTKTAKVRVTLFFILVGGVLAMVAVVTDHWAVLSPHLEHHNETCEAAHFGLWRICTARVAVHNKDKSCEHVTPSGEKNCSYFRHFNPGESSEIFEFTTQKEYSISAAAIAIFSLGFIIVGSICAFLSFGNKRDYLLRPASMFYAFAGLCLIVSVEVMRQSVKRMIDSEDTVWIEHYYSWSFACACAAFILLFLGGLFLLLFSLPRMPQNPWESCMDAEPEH

[3] = target: T1, human CACNG1 expressed on cells; assay: imaging cell binding, HEK293/hCACNG1
Experimental: (§1) HuSKM were seeded in collagen-coated 96-well plates (Greiner Bio-One #655956) at 8,500 cells/well and grown for 24 hours. The growth media was changed to MyoTonic Differentiation Media (Cook Myosite Cat #MD-5555) and replaced every 2 days. Myotubes were assayed after 6 days of differentiation. C2C12 mouse myoblasts were maintained in DMEM with 10% FBS and 1% penicillin-streptomycin supplement and grown in a 37° C. incubator with 5% CO₂. C2C12 cells were seeded in collagen-coated 96-well plates (Greiner Bio-One #655956) at 10,000 cells/well for the cell binding assay and 5,000 cells/well for the cell killing assay. After 24 hours, growth media was replaced with differentiation media (DMEM with 2% horse serum) and placed in a 37° C. incubator with 7.5% CO₂. C2C12 myotubes were assayed after 3 days of differentiation. HEK293/hCACNG1, HEK293/mCACNG1, and HEK293 cells were seeded at 10,000 cells (cell binding assay) or 2,000 (cell killing assay) per well in 96-well black collagen coated plates (Greiner Bio-One, cat #655956) in complete growth media and grown overnight at 37° C. in 5% CO₂.
(§2) Relative binding of anti-CACNG1 antibodies was assessed across the entire panel of cell lines via imaging analysis. […] After one wash with antibody dilution buffer, samples were fixed in CytoFix (BD Biosciences, Cat #554655) diluted 1:1 in PBS and supplemented with a 1:2000 dilution of Hoechst 33342 (Thermo, Cat #H1399) for 20 minutes on ice. Images were acquired with a 10× objective on the Opera Phenix (Perkin Elmer) and relative fluorescence units (RFU) was determined using Harmony software (Perkin Elmer).

[4] = target: T2, mouse CACNG1 expressed on cells; assay: imaging cell binding, HEK293/mCACNG1
Experimental: as §1, §2

[5] = target: T1, human CACNG1 expressed on cells; assay: imaging cell binding, HuSKM myotubes
Experimental: as §1, §2

[6] = target: T3, nanodisc embedded human CACNG1 expressed with a C-terminal PADRE-Flag-His tag (human, UniProt Q06432 1-222); assay: SPR, anti-His-captured nanodisc, 25 C
T3 construct: Captured on an anti-His Biacore surface; also called human CACNG1 nanodisc; CACNG1 nanodisc; not shown: C-terminal tag
Experimental: Equilibrium dissociation constants (KD values) for nanodisc embedded human CACNG1 expressed with a C-terminal […] tag (human CACNG1 nanodisc; concentration 0.82 mg/ml) binding to purified anti-CACNG1 antibodies were determined using a real-time surface plasmon resonance biosensor technology with a Biacore T200 instrument. The CM5 Biacore sensor surface was derivatized by amine coupling with a monoclonal mouse anti-His antibody (Cytiva; Marlborough, MA). All Biacore binding studies were performed in a buffer composed of 0.01M HEPES, 0.15M NaCl, 1 mM CaCl₂, 0.5 mM MgCl₂, pH 7.4 (HBS-N++ running buffer). Different concentrations of anti-CACNG1 antibodies (ranging from 300 nM to 12 nM in 5-fold serial dilutions) prepared in HBS-N++ running buffer were injected over the captured human CACNG1 nanodisc at a flow rate of 30 μL/minute. Antibody association was monitored for 2 minutes while dissociation was monitored in HBS-N++ running buffer for 5 minutes. At the end of each cycle, the human CACNG1 nanodisc capture surface was regenerated using three 10 second injections of 10 mM Gly pH1.5. All binding kinetics experiments were performed at 25° C.
The specific SPR-Biacore sensorgrams were obtained by a double referencing procedure. The double referencing was performed by first subtracting the signal of each injection over a reference surface (anti-His) from the signal over the experimental surface (anti-His captured human CACNG1 nanodisc) thereby removing contributions from refractive index changes. In addition, running buffer injections were performed to allow subtraction of the signal changes resulting from the dissociation of captured antibodies from the coupled anti-His surface. Kinetic association (kₐ) and dissociation ([…]) rate constants were determined by fitting the real-time sensorgrams to a 1:1 binding model using Scrubber v2.0c curve fitting software. Binding dissociation equilibrium constants (KD) and dissociative half-lives (t %) were calculated from the kinetic rate constants as: […]

[7] = target: T2, mouse CACNG1 expressed on cells; assay: imaging cell binding, C2C12 mouse myotubes
Experimental: as §1, §2

T3 sequence (Q06432 whole entry): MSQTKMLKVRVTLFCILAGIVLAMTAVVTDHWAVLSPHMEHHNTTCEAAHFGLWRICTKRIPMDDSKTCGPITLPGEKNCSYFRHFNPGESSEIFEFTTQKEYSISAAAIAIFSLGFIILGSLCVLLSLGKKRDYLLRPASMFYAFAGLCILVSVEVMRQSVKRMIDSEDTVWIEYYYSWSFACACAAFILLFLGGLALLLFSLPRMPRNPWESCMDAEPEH
T1 sequence (Q06432 whole entry): as above

B1: H2aM31944N (antibody, mouse IgG2a, kappa, V domains shown)
VH: QVQLVESGGGVVQPGRSLRLSCEASGITFRNYGMHWVRQAPGKGLEWVAVMWYDGSNKYYADSVKGRFTISRDNSKNTVYLQMNSLRAEDTAVYYCARRGHIATAAPFDYWGQGTLVTVSS
VL: DIQMTQSPSSLSASVGDRVTISCRASQSISSYLNWYQQKPGKAPKVLMYAASSLQSGVPSRFSGSGSGTDFTLTISSLQPEDFATYYCQQSYSTPPITFGQGTRLEIKR
notes: mIgG2a; also called CACNG1 mIgG2a antibody
% KILL, indirect cell killing, HEK293/hCACNG1 [1]: 95.7%
% KILL, indirect cell killing, HuSKM [1]: 98.6%
EC50/IC50, indirect cell killing, HEK293/hCACNG1 [1]: 0.000356 nM
EC50/IC50, indirect cell killing, HuSKM [1]: 0.0116 nM
% KILL, indirect cell killing, C2C12 [2]: 0%
% KILL, indirect cell killing, HEK293/mCACNG1 [2]: 4.3%
EC50/IC50, indirect cell killing, C2C12 [2]: > 10 nM
EC50/IC50, indirect cell killing, HEK293/mCACNG1 [2]: > 1 nM
EC50 [3]: 3.3 nM
S/N [3]: 93.4 fold
EC50 [4]: > 100 nM
S/N [4]: 2.2 fold
EC50 [5]: 0.48 nM
S/N [5]: 321 fold
Kd [6]: 17.1 nM
koff [6]: 0.00395 s⁻¹
kon [6]: 231000 M⁻¹ s⁻¹
mAb bound at 300 nM [6]: 16 RU
t1/2 [6]: 2.9 min
S/N [7]: 0.7 fold

B2: REGN7660 (antibody, human IgG4 S228P, kappa, V domains shown)
VH: EVQLVESGGGLVQPGGSLKLSCTASGLTLSDSAMHWVRQASGKGLEWVGRIRNKANRYATEYAASVKGRFTISRDDSKNTAYLQMNSLKTEDTAVYYCTRNWKIFLFDYWGQGTLVTVSS
VL: EIVLTQSPGTLTLSPGERATLSCRASQSVGSKYLAWFQQKRGQAPRLLIYGASSRTSGIPDRISGSGSGTDFTLTISRLEPEDFAVYYCQQYGSSPWTFGQGTKVEIKR
notes: hIgG4
% KILL, indirect cell killing, C2C12 [2]: 99.8%
% KILL, indirect cell killing, HEK293/mCACNG1 [2]: 92.3%
EC50/IC50, indirect cell killing, C2C12 [2]: 0.0237 nM
EC50/IC50, indirect cell killing, HEK293/mCACNG1 [2]: 0.0134 nM
EC50 [4]: > 100 nM
S/N [4]: 7.2 fold
Kd [6]: 12.6 nM
koff [6]: 0.0243 s⁻¹
kon [6]: 1.93e+06 M⁻¹ s⁻¹
mAb bound at 300 nM [6]: 23 RU
t1/2 [6]: 0.5 min
S/N [7]: 1 fold

B3: REGN10713 (antibody, human IgG4 S228P, lambda)
heavy: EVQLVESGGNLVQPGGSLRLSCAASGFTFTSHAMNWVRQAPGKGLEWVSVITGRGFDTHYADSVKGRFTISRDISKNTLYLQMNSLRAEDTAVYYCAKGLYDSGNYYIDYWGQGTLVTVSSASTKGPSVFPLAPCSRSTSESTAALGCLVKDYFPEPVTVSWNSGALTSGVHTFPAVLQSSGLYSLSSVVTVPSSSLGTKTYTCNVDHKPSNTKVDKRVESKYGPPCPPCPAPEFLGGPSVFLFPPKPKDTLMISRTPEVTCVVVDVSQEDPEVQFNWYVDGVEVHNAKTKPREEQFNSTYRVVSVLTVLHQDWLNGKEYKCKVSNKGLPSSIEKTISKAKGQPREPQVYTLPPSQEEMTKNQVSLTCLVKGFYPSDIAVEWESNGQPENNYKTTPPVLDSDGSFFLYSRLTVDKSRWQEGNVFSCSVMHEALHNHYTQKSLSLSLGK
light: QSVLTQPPSVSAAPGQKVTISCSGSSSNIGNNYVSWYQQLPGTAPKLLIYDNNKRPSGIPDRFSGSKSGTSATLGITGLQTGDEADYYCGTWDLSLSFNWVFGGGTKLTVLGQPKAAPSVTLFPPSSEELQANKATLVCLISDFYPGAVTVAWKADSSPVKAGVETTTPSKQSNNKYAASSYLSLTPEQWKSHRSYSCQVTHEGSTVEKTVAPTECS
notes: hIgG4
% KILL, indirect cell killing, C2C12 [2]: 0%
% KILL, indirect cell killing, HEK293/mCACNG1 [2]: 2.4%
EC50/IC50, indirect cell killing, C2C12 [2]: > 10 nM
EC50/IC50, indirect cell killing, HEK293/mCACNG1 [2]: > 1 nM
EC50 [4]: > 100 nM
S/N [4]: 2.7 fold
Kd [6]: 0.635 nM
koff [6]: 4.72e-05 s⁻¹
kon [6]: 74200 M⁻¹ s⁻¹
mAb bound at 300 nM [6]: 53 RU
t1/2 [6]: 245 min
S/N [7]: 2 fold

B4: REGN10728 (antibody, human IgG4 S228P, kappa)
heavy: QVQLVESGGGVVQPGRSLRLSCTASGITFRNYGMHWVRQAPGKGLEWVAVMWYDGSNKYYADSVKGRFTISGDNSKVYLQMNSLRAEDTAVYYCARRGTIRTAAPFDYWGQGTLVTVSSASTKGPSVFPLAPCSRSTSESTAALGCLVKDYFPEPVTVSWNSGALTSGVHTFPAVLQSSGLYSLSSVVTVPSSSLGTKTYTCNVDHKPSNTKVDKRVESKYGPPCPPCPAPGGGGPSVFLFPPKPKDTLMISRTPEVTCVVVDVSQEDPEVQFNWYVDGVEVHNAKTKPREEQFNSTYRVVSVLTVLHQDWLNGKEYKCKVSNKGLPSSIEKTISKAKGQPREPQVYTLPPSQEEMTKNQVSLTCLVKGFYPSDIAVEWESNGQPENNYKTTPPVLDSDGSFFLYSRLTVDKSRWQEGNVFSCSVMHEALHNHYTQKSLSLSLGK
light: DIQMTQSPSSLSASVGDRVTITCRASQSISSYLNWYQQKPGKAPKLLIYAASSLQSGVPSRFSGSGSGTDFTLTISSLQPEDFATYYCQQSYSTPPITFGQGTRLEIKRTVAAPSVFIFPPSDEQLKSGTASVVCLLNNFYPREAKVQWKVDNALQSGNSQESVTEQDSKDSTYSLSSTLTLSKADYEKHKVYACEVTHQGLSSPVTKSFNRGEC
notes: also called H2aM31929N/REGN10728; CACNG1 hIgG4 uber stealth antibody
% KILL, indirect cell killing, HEK293/hCACNG1 [1]: 95.8%
% KILL, indirect cell killing, HuSKM [1]: 99.3%
EC50/IC50, indirect cell killing, HEK293/hCACNG1 [1]: 0.000519 nM
EC50/IC50, indirect cell killing, HuSKM [1]: 0.0381 nM
% KILL, indirect cell killing, C2C12 [2]: 1.6%
% KILL, indirect cell killing, HEK293/mCACNG1 [2]: 5.1%
EC50/IC50, indirect cell killing, C2C12 [2]: > 10 nM
EC50/IC50, indirect cell killing, HEK293/mCACNG1 [2]: > 1 nM
EC50 [3]: 2.4 nM
S/N [3]: 138 fold
S/N [4]: 0.8 fold
EC50 [5]: 1.3 nM
S/N [5]: 467 fold
S/N [7]: 1.8 fold
binding result [7]: no binding (tested: 100 nM highest tested)

B5: H2aM31941N (antibody, mouse IgG1, kappa, V domains shown)
VH: QVQLVQSGAEVKKPGASVKVSCKASGYAFTTYGITWVRQAPGQGLEWMGWISAYNGNTNYAEKVQGRFTMTTDTSTNTAYMELRSLRSDDTAVYFCARKGHYGSGTYYNPFGFDFWGQGTMVTVSS
VL: EIMLMQSPGTLSLSPGERATLSCRASQSVSSSYLAWYQQKPGQAPRLLIYGASSRATDIPDRFSGSGSGTDFTLTISRLEPEDFAVYFCQQYYGSPWTFGQGTKVEIKR
notes: Both names are treated as one molecule; also called H1M31941N; lot H1M31941N-L1
% KILL, indirect cell killing, HEK293/hCACNG1 [1]: 95.4%
% KILL, indirect cell killing, HuSKM [1]: 91.2%
EC50/IC50, indirect cell killing, HEK293/hCACNG1 [1]: 0.00217 nM
EC50/IC50, indirect cell killing, HuSKM [1]: 0.112 nM
% KILL, indirect cell killing, C2C12 [2]: 0.4%
% KILL, indirect cell killing, HEK293/mCACNG1 [2]: 4.9%
EC50/IC50, indirect cell killing, C2C12 [2]: > 10 nM
EC50/IC50, indirect cell killing, HEK293/mCACNG1 [2]: > 1 nM
EC50 [3]: 0.21 nM
S/N [3]: 51.2 fold
S/N [4]: 1.4 fold
EC50 [5]: 0.13 nM
S/N [5]: 559 fold
Kd [6]: 1.19 nM
koff [6]: 0.000406 s⁻¹
kon [6]: 342000 M⁻¹ s⁻¹
mAb bound at 300 nM [6]: 19 RU
t1/2 [6]: 28.4 min
S/N [7]: 1.2 fold
binding result [7]: no binding (tested: 100 nM highest tested)

B6: REGN10715 (antibody, human IgG4 S228P, kappa)
heavy: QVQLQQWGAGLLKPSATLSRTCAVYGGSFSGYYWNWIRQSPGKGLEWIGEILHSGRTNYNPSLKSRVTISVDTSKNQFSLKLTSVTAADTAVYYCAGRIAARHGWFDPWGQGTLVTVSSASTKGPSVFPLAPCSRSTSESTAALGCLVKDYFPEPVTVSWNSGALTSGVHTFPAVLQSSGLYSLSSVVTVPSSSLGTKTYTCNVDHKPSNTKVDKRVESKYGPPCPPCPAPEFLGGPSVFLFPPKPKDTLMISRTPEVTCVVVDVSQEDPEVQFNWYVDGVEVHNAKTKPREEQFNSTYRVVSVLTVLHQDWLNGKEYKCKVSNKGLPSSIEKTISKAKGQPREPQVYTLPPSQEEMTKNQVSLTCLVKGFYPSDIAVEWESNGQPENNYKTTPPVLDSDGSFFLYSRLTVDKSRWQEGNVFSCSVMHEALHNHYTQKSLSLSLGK
light: DIQMTQSPSSVSTSVGDRVTISCRASQDIRKWLAWYQQKPGKAPKLLIYATSSLQSGVPSRFSGSGSGTDFTLTISSLQPEDFATYFCQQANSFPFTFGQGTKLEIKRTVAAPSVFIFPPSDEQLKSGTASVVCLLNNFYPREAKVQWKVDNALQSGNSQESVTEQDSKDSTYSLSSTLTLSKADYEKHKVYACEVTHQGLSSPVTKSFNRGEC
notes: hIgG4
% KILL, indirect cell killing, HEK293/hCACNG1 [1]: 96.4%
% KILL, indirect cell killing, HuSKM [1]: 99.6%
EC50/IC50, indirect cell killing, HEK293/hCACNG1 [1]: 0.000629 nM
EC50/IC50, indirect cell killing, HuSKM [1]: 0.0097 nM
% KILL, indirect cell killing, C2C12 [2]: 99.8%
% KILL, indirect cell killing, HEK293/mCACNG1 [2]: 96.1%
EC50/IC50, indirect cell killing, C2C12 [2]: 0.00469 nM
EC50/IC50, indirect cell killing, HEK293/mCACNG1 [2]: 0.000187 nM
EC50 [3]: 2.7 nM
S/N [3]: 91.3 fold
EC50 [4]: 0.26 nM
S/N [4]: 69.4 fold
EC50 [5]: 0.2 nM
S/N [5]: 1060 fold
Kd [6]: 1.98 nM
koff [6]: 0.000301 s⁻¹
kon [6]: 152000 M⁻¹ s⁻¹
mAb bound at 300 nM [6]: 31 RU
t1/2 [6]: 38.4 min
EC50 [7]: 2.3 nM
S/N [7]: 8.4 fold
